B1: DYRK1B (parent)
chain: YQGPGTRRLQEVLGVQTGGPGGRR

Variants of: B1
Assay: protein stability index of a GFP-peptide fusion (GPS, HEK-293T) (PSI 1-6); higher = more stable
Details: c terminus: a fixed tail appended
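Further: lentivirally expressed fusions sorted by FACS into six bins by GFP to DsRed ratio, PSI derived from sequencing read proportions per bin multiplied by bin number.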

Going from YQGPGTRRLQEVLGVQTGGEGGRR to YQGPGTRRLQEVLGVQTGGNGGRR, the protein stability index falls from 3.3 to 3.1.

Compared with YQGPGTRRLQEVLGVQTGGWGGRR, YQGPGTRRLQEVLGVQTGGLGGRR is higher in protein stability index: 2.02 for the first, 2.82 for the second.

First: YQGPGTRRLQEVLGVQTGGRGGRR
Second: YQGPGTRRLQEVLGVQTGGAGGRR
The protein stability index of the first is higher: 3.39 for the first, 3.22 for the second.

Compared with YQGPGTRRLQEVLGVQTGGKGGRR, YQGPGTRRLQEVLGVQTGGTGGRR is lower in protein stability index: 3.83 for the first, 3.32 for the second.

Compared with YQGPGTRRLQEVLGVQTGGVGGRR, YQGPGTRRLQEVLGVQTFGPGGRR is higher in protein stability index: 2.76 for the first, 3.23 for the second.

Compared with YQGPGTRRLQEVLGVQTCGPGGRR, YQGPGTRRLQEVLGVQTDGPGGRR is higher in protein stability index: 3.07 for the first, 4.02 for the second.

Compared with YQGPGTRRLQEVLGVQTQGPGGRR, YQGPGTRRLQEVLGVQTLGPGGRR is lower in protein stability index: 3.68 for the first, 2.74 for the second.

Going from YQGPGTRRLQEVLGVQTWGPGGRR to YQGPGTRRLQEVLGVQTNGPGGRR, the protein stability index rises from 2.81 to 3.34.

First: YQGPGTRRLQEVLGVQTSGPGGRR
Second: YQGPGTRRLQEVLGVQTMGPGGRR
The protein stability index of the first is higher: 3.15 for the first, 2.79 for the second.

Going from YQGPGTRRLQEVLGVQTAGPGGRR to YQGPGTRRLQEVLGVQTPGPGGRR, the protein stability index falls from 3 to 2.84.

Going from YQRPGTRRLQEVLGVQTGGPGGRR to YQYPGTRRLQEVLGVQTGGPGGRR, the protein stability index rises from 2.25 to 2.48.

Compared with YQKPGTRRLQEVLGVQTGGPGGRR, YQWPGTRRLQEVLGVQTGGPGGRR is higher in protein stability index: 2.79 for the first, 3.1 for the second.

Going from YQIPGTRRLQEVLGVQTGGPGGRR to YQPPGTRRLQEVLGVQTGGPGGRR, the protein stability index rises from 2.98 to 3.39.

Going from YQGPGTRRLQEVLGVQTGRPGGRR to YQGPGTRRLQEVLGVQTGKPGGRR, the protein stability index rises from 2.47 to 3.43.

Going from YQGPGTRRLQEVLGVQTGCPGGRR to YQGPGTRRLQEVLGVQTGPPGGRR, the protein stability index rises from 2.87 to 3.66.

First: YQGPGTRRLQEVLGVQTGHPGGRR
Second: YQGPGTRRLQEVLGVQTGNPGGRR
The protein stability index of the first is lower: 2.98 for the first, 3.05 for the second.

Going from YQGPGTRRLQEVLGVQTGWPGGRR to YQGPGTRRLQEVLGVQTGSPGGRR, the protein stability index rises from 2.14 to 2.81.

Compared with YQGPGTRRLQEVLGVQTGFPGGRR, YQGPATRRLQEVLGVQTGGPGGRR is higher in protein stability index: 3.33 for the first, 3.44 for the second.

Compared with YQGPSTRRLQEVLGVQTGGPGGRR, YQGPKTRRLQEVLGVQTGGPGGRR is lower in protein stability index: 3.42 for the first, 2.94 for the second.

Going from YQGPCTRRLQEVLGVQTGGPGGRR to YQGPDTRRLQEVLGVQTGGPGGRR, the protein stability index rises from 3.38 to 3.69.

Compared with YQGPFTRRLQEVLGVQTGGPGGRR, YQGPETRRLQEVLGVQTGGPGGRR is higher in protein stability index: 1.92 for the first, 3.74 for the second.

Compared with YQGPNTRRLQEVLGVQTGGPGGRR, YQGPMTRRLQEVLGVQTGGPGGRR is lower in protein stability index: 4.4 for the first, 2.46 for the second.

Compared with YEGPGTRRLQEVLGVQTGGPGGRR, YLGPGTRRLQEVLGVQTGGPGGRR is lower in protein stability index: 4.23 for the first, 2.5 for the second.

Compared with YNGPGTRRLQEVLGVQTGGPGGRR, YWGPGTRRLQEVLGVQTGGPGGRR is higher in protein stability index: 2.26 for the first, 2.95 for the second.

Compared with YSGPGTRRLQEVLGVQTGGPGGRR, YPGPGTRRLQEVLGVQTGGPGGRR is higher in protein stability index: 1.83 for the first, 3.44 for the second.

Going from YKGPGTRRLQEVLGVQTGGPGGRR to YTGPGTRRLQEVLGVQTGGPGGRR, the protein stability index falls from 4.18 to 3.12.

Compared with YHGPGTRRLQEVLGVQTGGPGGRR, YQGPGTRRLQEVLHVQTGGPGGRR is higher in protein stability index: 2.26 for the first, 3.62 for the second.

Going from YQGPGTRRLQEVLTVQTGGPGGRR to YQGPGTRRLQEVLDVQTGGPGGRR, the protein stability index rises from 2.66 to 4.18.

First: YQGPGTRRLQEVLCVQTGGPGGRR
Second: YQGPGTRRLQEVLYVQTGGPGGRR
The protein stability index of the first is lower: 1.55 for the first, 2.98 for the second.

Compared with YQGPGTRRLQEVLMVQTGGPGGRR, YQGPGTRRLQEVLEVQTGGPGGRR is higher in protein stability index: 3.25 for the first, 3.73 for the second.

First: YQGPGTRRLQEVLIVQTGGPGGRR
Second: YQGPGTRRLQEVLQVQTGGPGGRR
The protein stability index of the first is lower: 2.14 for the first, 3.72 for the second.

Compared with YQGPGTRRLQEVLAVQTGGPGGRR, YQGPGTRRLQTVLGVQTGGPGGRR is higher in protein stability index: 2.92 for the first, 3.31 for the second.

Compared with YQGPGTRRLQDVLGVQTGGPGGRR, YQGPGTRRLQKVLGVQTGGPGGRR is lower in protein stability index: 3.39 for the first, 2.3 for the second.

Compared with YQGPGTRRLQCVLGVQTGGPGGRR, YQGPGTRRLQFVLGVQTGGPGGRR is lower in protein stability index: 2.44 for the first, 1.51 for the second.

First: YQGPGTRRLQEELGVQTGGPGGRR
Second: YQGPGTRRLQEQLGVQTGGPGGRR
The protein stability index of the first is higher: 3.66 for the first, 3.5 for the second.

Compared with YQGPGTRRLQELLGVQTGGPGGRR, YQGPGTRRLQEALGVQTGGPGGRR is lower in protein stability index: 3.19 for the first, 2.84 for the second.

Going from YQGPGTRRLQEKLGVQTGGPGGRR to YQGPGTRRLQESLGVQTGGPGGRR, the protein stability index rises from 2.33 to 3.19.

First: YQGPGTRRLQENLGVQTGGPGGRR
Second: YQGPGTRRLQEHLGVQTGGPGGRR
The protein stability index of the first is higher: 3.81 for the first, 3.66 for the second.

Going from YQGPGTRRLQECLGVQTGGPGGRR to YQGPGTRRLQEILGVQTGGPGGRR, the protein stability index rises from 3.26 to 3.58.

Going from YQGPGTRRLQEFLGVQTGGPGGRR to YQGPGTRRLQEVLGVQFGGPGGRR, the protein stability index falls from 2.94 to 2.85.

First: YQGPGTRRLQEVLGVQDGGPGGRR
Second: YQGPGTRRLQEVLGVQQGGPGGRR
The protein stability index of the first is lower: 3.45 for the first, 3.47 for the second.

Compared with YQGPGTRRLQEVLGVQGGGPGGRR, YQGPGTRRLQEVLGVQSGGPGGRR is lower in protein stability index: 3.66 for the first, 2.77 for the second.

Compared with YQGPGTRRLQEVLGVQWGGPGGRR, YQGPGTRRLQEVLGVQCGGPGGRR is higher in protein stability index: 2.49 for the first, 2.95 for the second.

Compared with YQGPGTRRLQEVLGVQRGGPGGRR, YQGPGTRRLQEVLGVQEGGPGGRR is higher in protein stability index: 2.8 for the first, 3.44 for the second.

Going from YQGPGTRRLQEVLGVQTGGPGGQR to YQGPGTRRLQEVLGVQTGGPGGIR, the protein stability index falls from 3.38 to 2.75.

First: YQGPGTRRLQEVLGVQTGGPGGYR
Second: YQGPGTRRLQEVLGVQTGGPGGMR
The protein stability index of the first is lower: 2.67 for the first, 3.27 for the second.

Going from YQGPGTRRLQEVLGVQTGGPGGAR to YQGPGTRRLQEVLGVQTGGPGGPR, the protein stability index falls from 4.05 to 3.26.

From the supplement of paper PMC10567573
